In patent US5723761:

What was measured:
C16:0-ACP [1] = molecular target: C16:0-ACP
C14:0-ACP [2] = molecular target: C14:0-ACP
C14:0-ACP [3] = molecular target: C14:0-ACP; remark: listed apart in the source
C16:0-ACP [4] = molecular target: C16:0-ACP; remark: listed apart in the source

| Fatty Acyl Composition of Transgenic Canola Seeds (mol %), 10:0 (C10:0-ACP) [mol %] | Fatty Acyl Composition of Transgenic Canola Seeds (mol %), 16:0 (C16:0-ACP [1]) [mol %] | Fatty Acyl Composition of Transgenic Canola Seeds (mol %), 14:0 (C14:0-ACP [2]) [mol %] | Fatty Acids (nmol/ml), total fatty acid analysis of liquid cultures of CUPH-1 transformed K27 (fadD) (14:1-ACP) [nmol/mL] | Fatty Acids (nmol/ml), total fatty acid analysis of liquid cultures of CUPH-1 transformed K27 (fadD) (C18:1-ACP) [nmol/mL] | Fatty Acids (nmol/ml), total fatty acid analysis of liquid cultures of CUPH-1 transformed K27 (fadD) (12:1-ACP) [nmol/mL] | Fatty Acids (nmol/ml), total fatty acid analysis of liquid cultures of CUPH-1 transformed K27 (fadD) (C14:0-ACP [3]) [nmol/mL] | Fatty Acids (nmol/ml), total fatty acid analysis of liquid cultures of CUPH-1 transformed K27 (fadD) (C12:0-ACP) [nmol/mL] | Fatty Acids (nmol/ml), total fatty acid analysis of liquid cultures of CUPH-1 transformed K27 (fadD) (C16:0-ACP [4]) [nmol/mL] | Fatty Acids (nmol/ml), total fatty acid analysis of liquid cultures of CUPH-1 transformed K27 (fadD) (16:1-ACP) [nmol/mL] | Substance |
| --- | --- | --- | --- | --- | --- | --- | --- | --- | --- | --- |
| 3.94 | 20 | – | – | – | – | – | – | – | – | elm Class II acyl-ACP thioesterase (ULM-1) (enzyme) |
| – | 27.6 | 0.98 | 1.1 | 92.7 | 0.3 | 225 | 2 | 281 | 124 | Cuphea hookeriana Class II thioesterase CUPH-1 (cDNA clone CMT9) (enzyme) |
